Source: article doi:10.1101/452904 (bioRxiv, 2018)

Target: FLAG-Sec23A (human, UniProt Q15436 1-765)
Assay: pull-down

FLAG-Sec23A, sequence (Q15436 whole entry): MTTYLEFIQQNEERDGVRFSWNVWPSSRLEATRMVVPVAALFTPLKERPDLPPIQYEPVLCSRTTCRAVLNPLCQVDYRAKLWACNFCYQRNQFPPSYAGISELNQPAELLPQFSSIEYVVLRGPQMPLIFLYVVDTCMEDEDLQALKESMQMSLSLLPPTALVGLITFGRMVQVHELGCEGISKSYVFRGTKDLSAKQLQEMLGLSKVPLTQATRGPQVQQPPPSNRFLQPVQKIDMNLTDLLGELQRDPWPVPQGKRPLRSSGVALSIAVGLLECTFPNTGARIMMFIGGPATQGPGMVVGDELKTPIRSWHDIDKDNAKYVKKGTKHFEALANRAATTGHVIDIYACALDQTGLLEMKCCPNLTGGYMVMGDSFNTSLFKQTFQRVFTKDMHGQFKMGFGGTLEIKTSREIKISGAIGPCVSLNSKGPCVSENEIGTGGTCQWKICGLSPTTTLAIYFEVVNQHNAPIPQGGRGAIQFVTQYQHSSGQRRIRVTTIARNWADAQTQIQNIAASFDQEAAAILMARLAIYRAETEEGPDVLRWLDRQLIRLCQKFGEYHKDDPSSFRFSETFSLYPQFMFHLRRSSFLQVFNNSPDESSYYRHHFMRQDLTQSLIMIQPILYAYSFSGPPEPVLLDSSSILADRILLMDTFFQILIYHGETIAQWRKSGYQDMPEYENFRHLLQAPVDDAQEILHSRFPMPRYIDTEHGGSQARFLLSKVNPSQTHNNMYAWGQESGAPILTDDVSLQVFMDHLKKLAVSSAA

B1: GST-tagged TANGO1-PRD (1651–1907 aa)-His6 (domain or fragment)
chain: NTQNPPRRGPLSQNGSFGPSPVSGGECSPPLTVEPPVRPLSATLNRRDMPRSEFGSVDGPLPHPRWSAEASGKPSPSDPGSGTATMMNSSSRGSSPTRVLDEGKVNMAPKGPPPFPGVPLMSTPMGGPVPPPIRYGPPPQLCGPFGPRPLPPPFGPGMRPPLGLREFAPGVPPGRRDLPLHPRGFLPGHAPFRPLGSLGPREYFIPGTRLPPPTHGPQEYPPPPAVRDLLPSGSRDEPPPASQSTSQDCSQALKQSP
binding result: binds
